# Assay results reported in the nanobody polyreactivity screen of Harvey et al. (2022).
# Test: yeast display, Sf9 membrane polyspecificity reagent, FACS + sequencing; frameworks hold sequencing errors
# How it was run: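 Nanobodies came from a synthetic yeast display library in Saccharomyces cerevisiae BJ5465, induced with galactose for 36–48 hours and stained for 1 hour at 4 °C with 10% biotinylated, detergent-solubilized Sf9 membrane reagent. Cells were enriched on streptavidin microbeads and then FACS-sorted, with low and high (top ~1%) gates set on anti-HA fluorescence for expression and streptavidin fluorescence for reagent binding. Each polyreactivity label reflects the gate a clone came from. Genes were amplified by colony PCR, sequenced by MiSeq 2 × 250 and filtered by CDR length.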
row,Sequence,polyreactivity (PSR sort gate)
1,QVQLVESGGGLVQAGGSLRLSCAASGIIFPPYTMGWYRQAPGKERELVAGITGNSGTTYYADSVKGRFTISRDNAKNTVYLQMNSLKPEDTAVYYCAVRDVYHRYWGQGTQVTVSS,high polyreactivity
2,QVQLVESGGGLVQAGGSLRLSCAASGIIFPRNAMGWSREAPGKERELVAAITSGDTTNYADSVKGRFTISRDNAKKTVYLQMNSQKPADTAVYYCAADQFQGNSGFEYWGQGTQVTVSS,low polyreactivity
3,QVQLVESGGGLVQAGGSLRLSCAASGIIFPWYTMGWYRQAPGKERELVAAISSGGRTNYADSVKGRFTISRDNAKNTVYLQMNSLKPEDTAVYYCAAKFYRDRDWGQGTQVTVSS,high polyreactivity
4,QVQLVESGGGLVQAGGSLRLSCAASGIIFPYNTMGWYRQAPGKERELVASIDDGGSTNYADSVKGRFTISRDNAKNTVYLQMNSLKPEDTAVYYCAADPYWFFPHYDSWGQGTQVTVSS,low polyreactivity
5,QVQLVESGGGLVQAGGSLRLSCAASGIIFPYYAMGWYIQAPGKERELVASISSRGSSTYYADSVKGRFTISRDNAKNTVFLQMNSLKPEDTAVYYSAAQNFYRYYWGQGTQVTVSS,high polyreactivity
6,QVQLVESGGGLVQAGGSLRLSCAASGIIFPYYAMGWYRQAPGKERELVAGISSSGGITYADSVKGRFTISRDNAKNTVYLQMNSLKPEDTAVYYCNAEYQWLEYDFWGQGTQVTVSS,low polyreactivity
7,QVQLVESGGGLVQAGGSLRLSCAASGIIFQFYAMGWYRPAPGKERELVAAISRSGGITHYADSVKGRFTISRDNAKNTVYLQMNSLKPEDTAVYYCNAVQPARFVGGFGTGVDYWGQGTQVTVSS,high polyreactivity
8,QVQLVESGGGLVQAGGSLRLSCAASGIIFQPYTMGWYRQAPGKERELVAAISYSGGSTYYADSVKGRFTISRDNAKNTVYLQMNSLKPEDTAVYYCAARRYPYSGTHRGFYYWGQGTQVTVSS,high polyreactivity
9,QVQLVESGGGLVQAGGSLRLSCAASGIIFQRNAMGWYRQAPGKERELVAAISASGGSTNYADSVKGRFTISRDNAKNTVSLQMNSLKPEDTAVYYCAAEDDGDFDYWGQGTQVTVSS,low polyreactivity
10,QVQLVESGGGLVQAGGSLRLSCAASGIIFQRNDIGWYREAPGKERELVANIRDGGITYADSVKGRFTISRDNAKNTVYLQMNSLKPDDTAVYYCALEDTSPGYGDQSSNAAYYYWGQGTQVTVSS,low polyreactivity
11,QVQLVESGGGLVQAGGSLRLSCAASGIIFQTYAMGWYRQAPGKERELVAAISRSGGSTYYADSVKGRFTISRDNAKNTVYLQMNSLKPEDTAVYYCAAYGYHVNWLKGNYWGQGTQVTVSS,high polyreactivity
12,QVQLVESGGGLVQAGGSLRLSCAASGIIFQVYAMGWYRQAPGKERELVAAISDDGSTNYADSVQGRFTISRDNAKNTGYLQMNSLKPEDTAVYYCAKDSWGRLYYRYDYWGQGTQVTVSS,low polyreactivity
13,QVQLVESGGGLVQAGGSLRLSCAASGIIFQYYAMGWYRQAPGKERELVAAITSSGGSTFYADSVKGRFTISRDNSKNTVYLQMNSLKPEDTAVFYCAGVYHRSTYDYWGQGTQVTVSS,high polyreactivity
14,QVQLVESGGGLVQAGGSLRLSCAASGIIFQYYVMGWYRQAPGKERELVATISTRGGSTYYADSVKGRFTISRDNAKNTVYLQMNSLKPEDTAVYYCAAPYGTYAYDYWGQGTQVTVSS,high polyreactivity
15,QVQLVESGGGLVQAGGSLRLSCAASGIIFRGNAMGWYRQAPRKEREFVAAISLRGSRTYYADSVKGRFTISRDNAKNTVYLQMNSLKPEDTAVYYCNARGGPSPFGSDYWGQGTQVTVSS,high polyreactivity
16,QVQLVESGGGLVQAGGSLRLSCAASGIIFRGNAMGWYRQAPRKERELVAAISSAGSTNYADSVKGRFTISRDNAKNTVYLQMNSLKPEDTAVYYCAKGSSKYHVTLRGRGYYWGQGTQVTVSS,low polyreactivity

row,Sequence,polyreactivity (PSR sort gate)
1,QVQLVESGGGLVQAGGSLRLSCAASGIIFRGNAMGWYRQEPGKESEIVAAISLRGSRTYYADSVKGRFTISRDNAKNTVYLQMNSLKPEDSAVYYCNARGGTSPFGSDYWGQGTQVTVSS,high polyreactivity
2,QVQLVESGGGLVQAGGSLRLSCAASGIIFRGYAMGWYREAPGKERELVAAIRDRGGSTYYADSVKGRFTISRDNAKNTVYLQMNSLKPEDTAVYYCATENRVYRHPGYDYDYWGQGTQVTVSS,low polyreactivity
3,QVQLVESGGGLVQAGGSLRLSCAASGIIFRGYVMGWYRQAPGKERELVAAISRSGGRTYYADSVKGRFTISRDNAKNTVYLQMNSLKPEDTAVYYCNAVRYVLGYSYDYNYWGQGTQVTVSS,high polyreactivity
4,QVQLVESGGGLVQAGGSLRLSCAASGIIFRLNTMGWYRPAPGTERELVAAITSGGSTHYADSVKGRFTISRDNAKNTVYLQRISLNPEDTAVYYCAAGHRAKYWAWHFYYPGDYWGQGTQVTVSS,low polyreactivity
5,QVQLVESGGGLVQAGGSLRLSCAASGIIFRLYAMGWYRQAPGKERELVAAITSRGGSTYYADSVKGRFTISRDNAKKTVYLQMNSLKPEDTAVYYCAARPVYSGYDYWGQGTQVTVSS,high polyreactivity
6,QVQLVESGGGLVQAGGSLRLSCAASGIIFRLYGMGWYRQAPGKERELVAGINTGGSTYADSVKGRFTISRDNAKNTVYLQMNSLKPEDTAVYYCATGPYLIYDYWGQGTQVTVSS,low polyreactivity
7,QVQLVESGGGLVQAGGSLRLSCAASGIIFRNYAMGLYRQAPGKEREFVAAISGSGTSTYYADSVKGRFTISRDNAKNTVYLQMNSLKPEDTAVYYCAAEKYSYPYDYEYWGQGTQVTVSS,high polyreactivity
8,QVQLVESGGGLVQAGGSLRLSCAASGIIFRNYAMGWYRQAAGNERAWVAAISWTGDSTYYADSVKGRFTISRDNAKNTVYLQMNSQKPEETAVYYCAAEAYYGLWMDYWGQGTQVTVSS,low polyreactivity
9,QVQLVESGGGLVQAGGSLRLSCAASGIIFRNYAMGWYRQAPGEERELVATIRYRGGRTYADSVKGRFTISRDNAKNTVYLQMNSLKPEDTAVYYCNTYARYAYLTGRMDYWGQGTQVTVSS,high polyreactivity
10,QVQLVESGGGLVQAGGSLRLSCAASGIIFRNYAMGWYRQAPGKERELVAAISWTGDSTYYADSVKGRFTISRDNAKNTVYLQMNSLKPEDTAVDYCAAEAYYGLWMDYWGQGTQVTVSS,low polyreactivity
11,QVQLVESGGGLVQAGGSLRLSCAASGIIFRPNAMGWYRQEPGKERELVAAISRNGVRTYYSDSVKGRFTISRDNAKITVYLQMNSLKPEDTAVYYCNRDYNAAYDWGEGTQVTVSS,high polyreactivity
12,QVQLVESGGGLVQAGGSLRLSCAASGIIFRRYAMGLYRQAPGKERELVAAISSRGGSTYYADSVKGRFTISRDNAKNTVYLQMNCLKPEDTAVYFCAKGFSGTGGSGDFGYWGQGTQETVSS,high polyreactivity
13,QVQLVESGGGLVQAGGSLRLSCAASGIIFRRYAMGWYRQAPGKERELVAAITGSGGSTYYADSVKGRFTISRDNAKNTVYLQMNSLKPEDTAVYYCAAQSLLRFASSRYNSWGQGTQVTVSS,high polyreactivity
14,QVQLVESGGGLVQAGGSLRLSCAASGIIFRSYAMGWYRQAPGKERELVAAISRRGGSTYYADSVKGRFTISRDNAKNTVYLQMNSLKPEDTAVYYCAATVLSSPEPYDYWGQGTQVTVSS,high polyreactivity
15,QVQLVESGGGLVQAGGSLRLSCAASGIIFRSYAMGWYRQAPGKERELVAGISLSGGSTYYADSVKGRFTISRDNAKNTVYLQMNSLKPEDTAVYYCATRNHYFRALRYGYCGQGTQVTVSS,high polyreactivity
16,QVQLVESGGGLVQAGGSLRLSCAASGIIFRSYAMGWYRQAPGKERELVAGISLSGGSTYYADSVKGRFTISRDNAKNTVYLQMNSLKPEDTAVYYCATRNHYFRALRYGYWGQGTQVTVSS,high polyreactivity
